Assay in all cases: fluorescence polarisation; 25 °C; unlabeled Rb^P titrated against 1.5 nM TMR-E2F1^TD or 7.5 nM TMR-E7^LxCxE; 25 mM Tris pH 8.0, 200 mM NaCl, 1 mM DTT, 0.1% Tween-20; 2 min incubation; quadratic fit; apparent Kd for the variants, Kd for WT
Common to all, as to details: both partners purified
In general terms: Fluorescence polarisation rises when a labelled molecule tumbles more slowly, as on binding a larger partner.

Assay [1] has as its target T1, Rb^P V754G (human, UniProt P06400 380-788, V754G).
T1 construct: also called variant 73
T1 sequence (looked up): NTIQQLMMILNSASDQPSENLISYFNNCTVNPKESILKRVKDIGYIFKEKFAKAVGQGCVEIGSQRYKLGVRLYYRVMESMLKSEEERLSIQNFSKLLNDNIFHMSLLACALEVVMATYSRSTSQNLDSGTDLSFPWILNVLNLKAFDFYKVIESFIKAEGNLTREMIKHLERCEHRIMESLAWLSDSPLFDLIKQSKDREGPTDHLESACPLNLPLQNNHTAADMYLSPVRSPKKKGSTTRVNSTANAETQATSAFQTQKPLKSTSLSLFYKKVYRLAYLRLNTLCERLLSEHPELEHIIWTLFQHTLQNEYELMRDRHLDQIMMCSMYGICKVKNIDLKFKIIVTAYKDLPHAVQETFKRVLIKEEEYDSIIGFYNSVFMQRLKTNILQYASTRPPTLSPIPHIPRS

Assay [2] deals with T2, Rb^P R668C (human, UniProt P06400 380-788, R668C).
T2 construct: also called variant 51
T2 sequence (looked up): T1 sequence (looked up) with R289C, G375V

Assay [3] deals with T3, Rb^P E539D (human, UniProt P06400 380-788, E539D).
T3 construct: also called variant 24
T3 sequence (looked up): T1 sequence (looked up) with E160D, G375V

The target of assay [4] is T4, Rb^P E554K (human, UniProt P06400 380-788, E554K).
T4 construct: also called variant 28
T4 sequence (looked up): T1 sequence (looked up) with E175K, G375V

Assay [5] concerns the target T5, Rb^P I703V (human, UniProt P06400 380-788, I703V).
T5 construct: also called variant 65
T5 sequence (looked up): T1 sequence (looked up) with I324V, G375V

Numbering of substitutions follows the chain as printed. In names and notes the source's numbering stands. No end group written: not given here. TMR = tetramethyl rhodamine dye

B1: TMR-E2F1^TD, peptide of the E2F1 transactivation domain (peptide)
peptide: {TMR}-GEGIRDLFDCDFGDLTPLD
notes: also called E2F^TD; source: synthetic peptide, bought: GenScript
On to B1, for which the Kd is 20 nM in assay [1]; 12 nM in assay [2]; 55 nM in assay [3]; 1170 nM in assay [4]; 20 nM in assay [5].

B2: TMR-E7^LxCxE, LxCxE peptide of the E7 oncoprotein from HPV (peptide)
peptide: DLYCYEQLN
modifications: also: TMR label, position not given here
notes: source: synthetic peptide, bought: GenScript
As for B2, the Kd in assay [1] was found to be 7 nM; in assay [2] it was 3 nM; in assay [3] it was 7 nM; in assay [4], 12 nM; in assay [5] it was 21 nM.
